Here are results for one protein from PMC7060085 (ACS applied materials & interfaces, 2019).

The series deals with the molecule itself. The experiment in a line: SEC.

B1: Physalis mottle virus (PhMV) virus-like particle, native (unmodified recombinant coat protein) (natural protein)
chain: MDSSEVVKVKQASIPAPGSILSQPNTEQSPAIVLPFQFEATTFGTAETAAQVSLQTADPITKLTAPYRHAQIVECKAILTPTDLAVSNPLTVYLAWVPANSPATPTQILRVYGGQSFVLGGAISAAKTIEVPLNLDSVNRMLKDSVTYTDTPKLLAYSRAPTNPSKIPTASIQISGRIRLSKPMLIAN
On to B1, for which the binding result is “binds”.
